According to the nanobody polyreactivity screen of Harvey et al. (2022):

Experiment: yeast display, Sf9 membrane polyspecificity reagent, FACS + sequencing; frameworks hold sequencing errors
Procedure, shortened: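 Polyreactivity labels are assigned by the sorting gate from which each nanobody was recovered. The gates were low and high (top ~1%), set on anti-HA fluorescence for expression and streptavidin fluorescence for reagent binding. Before sorting, galactose-induced (36–48 hours) yeast display cells were stained for 1 hour at 4 °C with 10% biotinylated, detergent-solubilized Sf9 membrane reagent.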

Sequence | polyreactivity (PSR sort gate)
QVQLVESGGVLVQAGGSLRLSCAASGRTLRPYAMGWYRQAPGKERELVAAMTGGVSTDYADSVKGRFTISRDNAKNTVYLQRNSLKPEDTAVYYGAVDDRWFNHISGRYYEYYYWGQGTQVTVSS | low polyreactivity
QVQLVESGGVLVQAGGSLRLSCAASGSIFKRNVMGWYRQAPGKERELVAAITWSGASTYYADSVKGRFTISRDNAKNTVYLQMNSLKPEDTAVYYCAARGPSRRRDGSDYWGQGTQVTVSS | high polyreactivity
QVQLVESGGVLVQAGGSLRLSCAASGSIFRTNVMGWYSQAPGKEREMVASISSDSSTNYADSVKGRFTISRDNEKNTVYLQMNSLKPEDTAVYYCAKDPVVTEHYYWGQGTQVTVSS | low polyreactivity
QVQLVESGGVLVQAGGSLRLSCAASGSIFVYYGMGWYRQAPGKEREFVAAIWTGGSTYYADSVKGRFTISRDNAKNTVYLQMNSLKPEDTAVYYCAADRRGSHYYRYKYGYWGQGTQVTVSS | high polyreactivity
QVQLVESGGVLVQAGGSLRLSCAASGSLFTRYAMGGYRQAPGKVRELVAAISKSGTTTYYADSVKGRFTISRDNAKNTVYLQMNSLIPEDTAVYYCAAVPIAGKMDYWGQGTQVTVSS | high polyreactivity
QVQLVESGGVLVQAGGSLRLTCAASGFTFSRNTMGWYRQAPGKERELVAAIDSTGGSTYYADSVKGRFTISRDNAKNTVYLQMNSLKPEDTAVYYCATVLPDGRVWYEGYYWGQGTQVTVSS | low polyreactivity
QVQLVESGGVLVQEGGSLRLSCAASVSIFSRNAMGSYRQAPGKERELVAAISYSGGSTYYADSVKGRLTISRDNAKNTVYLQMNSLKPEDTEVYYCAAYGHHFQGDYNYWGQGTQVTVSS | low polyreactivity
QVQLVESGGVLVQPRGSLRLICAASGSTLAGNAMGWYRQAPGKEREFVAAISWSGGRTYYADSVKGRFTISRDNAKMTVYLQMNRMKPEDTAVYYCAARRGQTRYQYYYWGQGTQVTVSS | high polyreactivity
QVQLVESGGVVVQAGGSLRLSCAASGFTIDYYAMGWYRQARGQERELVATINGASYTNYADSVKGRFTISRDNAKNTVYLQMNSLKPEDTAVYYCNARYYGPDFVLAYDYWGQGTQVTVSS | low polyreactivity
QVQLVESGLGLLQAGGSLRLSCAASGFIFRLYTMGRYREAPGKVRELVASISSAGSTNYADSVKGRFTISLDNAKNTVYLQMNSLKPDDTAVYDCDKYYGQFYPPTLGYWGQCTQVTVSS | low polyreactivity
QVQLVESGRALVQAGGSLRLSCAASGRICGIYSMGWNRQAPGKEREFVAAISDRSGSRTYYADSVKGRFTISRDNAKNTVYLQMNSLKPEDTAVYYCNARHQYQTLYPGGYYWGQGTQVTVSS | high polyreactivity
QVQLVESGRALVQAGGSLRLSCAASGSTSRIYALGWYRQAPWKERELVAALTRSGGSTYYADSVKGRFTISRDNAKNTVYLQMNSLKPEDTAVYYCAADYRSHSRYRYDKVDYWGQGTQVTVSS | high polyreactivity
QVQLVESGRALVQAGGSLRLSCASSVRIFVRNAMGWYRQAPGKESELVAAISARGGRTNYADSVKGRFTISRDNAKNTVYLQMNSLKPDDTAVYYCAAVGFRAAYLYDYWGQGTQVTVSS | high polyreactivity
QVQLVESGRGIVQAGGSLRISWAASGITLAGYVMGLYRQAPGKESELVADISSSGDSTYYADSVKGRFTMSRDNAKNTVYLQMNSLKPEDTAVYYCAAKCGRTGSFDYWGQGTQVTVSS | low polyreactivity
QVQLVESGRGIVQAGGSLRLSCAASGLTFSSNAMVWYRQAPGKEREMVAVITNGGSTNYADSVKGRFTISRDNAKNTVYLQMNSLKPEDTAVYYCAKDGGPAQDIGMDYWGQGTQVTVSS | low polyreactivity
QVQLVESGRGLFQAGGSLRLSCAASGFTFSLYAMGWYRQPPGKERELVAVISYRGGSTYYAYSVKGRFTISRDNAKNTVYLQMNSLKPEVTAVYYCARVVLHFSRYWWPVDYWGQGTQVTVSS | high polyreactivity

Sequence | polyreactivity (PSR sort gate)
QVQLVESGRGLFQAGGSLRLSCAASGSTFSGYAMGWYRPAPGKERELVATITRRGGNTYYADSVKGRFTISRDNAKNTVYLQMNSLKPEDTAVYYCSKDGRVHSPYDYWGQGTQVTVSS | low polyreactivity
QVQLVESGRGLGQAGGSLRLSCAASVSTFDKYDKGRSRQAPGKEREFVAAISSTGASTYYADSVKGRFTISRDNAKNTVYLQMNSLKPEDTAVYYCAADVPVGYGDDYWGQGTQVTESS | low polyreactivity
QVQLVESGRGLVEAGGSLRLSCAASGFIFLPYAMVWYRQAPGKERELVAAITRGGRTYYADSVNRRFTISRDNAKNTVYLQMNSLKPEDTAVYDCAATTYLVWGYNYWGQGTQVTVSS | low polyreactivity
QVQLVESGRGLVQAGASLRLSCAASGRTFPYYARGRYRQAPGKERELVAAITTGGSTNYADSVKGRFTISRDNAKNTVYLQMNRLKPEDTAVYYCAKRFYRSRLNYYYWGQGTQVTVSS | high polyreactivity
QVQLVESGRGLVQAGGSLRISCASSGNTFVYNPMGWYRQAPGKERELVAAIDSGGSTNYADSVKGRFTISRDNAKNTVYLQMNSLKPEDTAVYYCNRTSVYDYYWGQGTQGTVSS | low polyreactivity
QVQLVESGRGLVQAGGSLRLSCAASASTFTLNTMGWYREAAGKERELVAAITASGGRTFYADSVKGPFTISRDNANNTVYLQMTSLKPEDTAFYYCAKRPYGWVSRYDYWGQVTQVTVSS | low polyreactivity
QVQLVESGRGLVQAGGSLRLSCAASGFIFGGYAMGWYRQAPGKERELVAAISRSGGSTYYADSVKGRFTISRDNAKNTVYLQMNSLKPEDTAVYYCAAKFWPEDHRLDYWGQGTQVTVSS | low polyreactivity
QVQLVESGRGLVQAGGSLRLSCAASGFIFSYYAMGWYRPAPGKERELVAAITVTGGNTNYADSVKGRFTISRDNAKNTVYLQMNSLKPEDTAVYYCAAVVRGPGVYVYDWGQGTQVTVSS | low polyreactivity
QVQLVESGRGLVQAGGSLRLSCAASGFMIGINAMGWYRQAPGKERELVDAISTGDRTNYAHSVKGRFTISRDNAKNTVYLQMNSLKPEDTAVYYCAKDWRRNRPYEWTYDYWGQGTQVTVSS | low polyreactivity
QVQLVESGRGLVQAGGSLRLSCAASGFTFAPNAMGWYRQAPGKDRELVARIDRAGSTYYADSVKGRFTISRDNAKNTVYLQMNSLKPEDTAVYYCATDYHGQPSPPYQSIKVDYWGQGTQVTVSS | low polyreactivity
QVQLVESGRGLVQAGGSLRLSCAASGFTFSLNAMGWYRQAPGKERELVAGISIGGSTNYADSVKGRFTISRDNAKNTVYLQMNSLKPEDTAVYYCNAYYWSATWYFAAWDYYYWGQGTQVTVSS | high polyreactivity
QVQLVESGRGLVQAGGSLRLSCAASGIIFAQNAMGWYRQAPGKEMVLVAAISLDGGSTNYADSVKGRFTISRDNAKNTVYLQMNSLKPEDTAVYYCAADDGWIEPVYGYYEHEYWGQGTQVTVSS | low polyreactivity
QVQLVESGRGLVQAGGSLRLSCAASGLTFRVYAMGWYRQAPGKERELVAAITGGGGSTYADSVKGRFTISRDNAKNTVYLQMNSLKPQDTAVYYCNKKGYYYKFDYWGQGTQVTVSS | low polyreactivity
QVQLVESGRGLVQAGGSLRLSCAASGRIFFKYAMGRYRPAPGKERELVAAISSSGGRTSYADSVKGRFTISRDNAKNTVYLQMNSLKPEDTAVYYCNVKPSARGSPLYDYWGQGTQVTVSS | high polyreactivity
QVQLVESGRGLVQAGGSLRLSCAASGRIFFYYAMGWYREAPGKERELVATISYSGGGTYYADSVKGRFTISRDNAKNTVYLQMNSLKPEDTAVYYCNARWGTPYYIQDFDYWGQGTQVTVSS | low polyreactivity
QVQLVESGRGLVQAGGSLRLSCAASGRIFGINAMGGYRQAPGKERELVAPITSGVSTNYADSVKGRFTISRDNAKNTVYLQMNSLKPGDTAVYYCAARPRWYFFSYGRQDYGYWGQGTQVTVSS | low polyreactivity
